The record followed here is patent US20040236073A1 (MEDICAL RESEARCH COUNCIL, published 2004).

Data set [1] deals with the molecule itself. Description: X-ray crystal structure of the NK1-heparin complex, crystal type A; self-association.
Data set [2] concerns the molecule itself. Description: BS3 cross-linking with western blot, and gel filtration (Superdex 200), with equimolar 14-mer heparin; self-association. As to the method:
(§1) This was carried out by gel filtration chromatography and cross-linking experiments. For gel filtration, wt- or mutant NK1 (0.5 mg/ml) were incubated for 2 hours in the presence or absence of equimolar concentration of 14-mer heparin in phosphate buffered saline (PBS) adjusted to 300 mM NaCl. Samples were then loaded onto an HR30 Superdex 200 column (Ammersham Pharmacia Biotech) and eluted at 0.5 ml/min.
(§2) For cross-linking, 10 μl of wt- or mutant-NK1 (0.1 mg/ml) were incubated in the absence or presence of an equimolar concentration of 14-mer heparin in PBS. After 2 hours incubation at room temperature, 1 μl of crosslinker (BS³, Pierce) was added at 100 fold molar excess, the reaction was continued for 30 minutes and then quenched with 1 μl of 1M Tris-Cl, pH 7.4. Reaction products were loaded onto 15% SDS-polyacrylamide gels and blotted onto a nitrocellulose membrane (Schleicher & Schuell). […] HRP activity was detected after 3 further washes in PBS+0.2% Tween 20 using a chemiluminescent substrate (Pierce).
(§3) Cross-linking (Schwall et al., 1996) and gel filtration (Chirgadze et al., 1999) experiments were employed first in order to characterize heparin-mediated oligomerization of wt NK1 in solution. […] Cross-linked proteins were analyzed by western blotting and detected with an anti-HGF/SF polyclonal antibody (1W53). […]

Data set [3] deals with the molecule itself. Kind of data set: BS3 cross-linking with western blot, and gel filtration, with equimolar 14-mer heparin; self-association. As to the method:
as §1, §2, §3
In general terms: Immunoblotting shows a protein as a band on a membrane.

Changes are numbered by the printed parent chain. Names may count otherwise.

B1: wild-type NK1 fragment of HGF/SF (amino acids 28-210) (ligand)
chain: YAEGQRKRRNTIHEFKKSAKTTLIKIDPALKIKTKKVNTADQCANRCTRNKGLPFTCKAFVFDKARKQCLWFPFNSMSSGVKKEFGHEFDLYENKDYIRNCIIGKGRSYKGTVSITKSGIKCQPWSSMIPHEHSFLPSSYRGKDLQENYCRNPRGEEGGPWCFTSNPEVRYEVCDIPQCSEVE
notes: Expressed in P. pastoris; Forms a head-to-tail dimer in the crystals and a heparin-dependent dimer in solution; also called wt-NK1; wt NK1
For B1, in data set [1], the binding result was “binds”.

B2: NK1 mutant HP11 (R73E:R76E) (ligand)
chain: B1 chain with R46E, R49E
notes: N domain reverse-charge mutant of NK1; Expressed in P. pastoris
As for B2, the binding result in data set [2] is given as “no binding”.

B3: NK1 mutant 1K1 (K132E:R134E) (ligand)
chain: B1 chain with K105E, R107E
notes: K domain reverse-charge mutant of NK1
As for B3, the binding result in data set [3] is “binds”.

B4: NK1 mutant 1K2 (K170E:R181E) (ligand)
chain: B1 chain with K143E, R154E
notes: as for B3
Take B4: in data set [3], the binding result is “binds”.
